The test system of data set [1] is T1, LongLRRKtide (RLGRDKYKTLRQIRQGNTKQR).
T1 sequence: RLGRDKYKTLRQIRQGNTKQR

In data set [2] the test system is T2, LRRKtide peptide (RLGRDKYKTLRQIRQ).
T2 sequence: RLGRDKYKTLRQIRQ

For the substance GST-LRRK2[1326-2527], the “affinity relative to LRRKtide (from phosphorylation with LRRK2)” value in data set [1] is “The LRRK2 affinity for the longLRRKtide is ten fold more than that that of LRRKtide”. Further, the “Km (phosphorylation of LRRKtide, P81 paper 32P assay)” value in data set [2] is listed as “a similar Km of approximately 200 µM”.

The record behind these values is patent US20090142784.
